# Where “and” joins values, the source holds several entries; their conditions need not be identical. Equal entries are not always repeated. Square brackets hold non-standard residues; d marks the D form. Ends that are not written are not given here. hArg = N=C(N)NCCCC[C@H](N)C(=O)O
# T1: Ac-VQIINK-NH2
# T1 peptide: Ac-VQIINK-NH2
# Target: T1, Ac-VQIINK-NH2
# Experiment: cell-based or functional assay
row,Binder,"IC50 (µM), VQIINK Inhibition (ThT)"
1,IWIRYW,5.43 µM
2,FRIWIRYF,4.64 µM
3,RIHIFFW,1.95 µM
4,WRIRIRH,11.6 µM
5,WRIRIRR,34.1 µM
6,WRIRLRW,4.04 µM
7,WRIRLYWR,2.12 µM
8,KWWIRIRYW,1.8 µM
9,WRIRIAW,6 µM
10,LRIWIRYL,1.74 µM
11,ARIRIRW,2.72 µM
12,IRIWIW,2.94 µM
13,RIRIAIW,1.8 µM
14,IRLWVW,1.63 µM
15,FRIRIKHY,3.61 µM
16,IRLWIW,1.83 µM
17,WYRLRIRW,2.36 µM
18,RIRVWIF,2.8 µM
19,ERIWIRYW,6.19 µM
20,IRIRWRW,4.86 µM
21,WRIWIREW,3.96 µM
22,IWIRYWRW,2.15 µM
23,W[hArg]I[hArg]L[hArg]W [W(hR)I(hR)L(hR)W],2.52 µM
24,RRIRIRW,4.29 µM
25,WRIRARW,4.07 µM
26,WRIWIRLW,3.97 µM

row,Binder,"IC50 (µM), VQIINK Inhibition (ThT)"
1,IRWRIRW,9.77 µM
2,LKIHIRHW,3.05 µM
3,RIWIRIW,3.17 µM
4,WIRYWWRI,2.8 µM
5,WYRIWIRW,2.02 µM and 3.69 µM
6,KIRLYWW,2.86 µM
7,RIALYWW,2.39 µM
8,WRARIRW,5.77 µM
9,RIRLEWW,3.89 µM
10,FRIRIHHW,1.08 µM
11,RIWLWYR,4.27 µM and 5.47 µM
12,ARIWIRYW,3.14 µM
13,RIRLWIW,4.63 µM
14,HRIRIRW,9.07 µM
15,WRIWIRW,2.73 µM
16,RIWIRVW,2.14 µM
17,WRIHIRYW,3.17 µM
18,WRIWIR,11.8 µM
19,WRIRIRW,2.96 µM
20,RIRIRWW,10.2 µM
21,WKIHIWWR,2.01 µM
22,RIRIWVW,2.3 µM
23,WRIHIRW,1.47 µM
24,RIRIFIW,1.57 µM
25,WRIRIRA,8.28 µM

# Target: His-Tau40P301L Tau (UniProt P10636-8 1-441)
# Sequence (P10636 other isoform, or with tags, fused parts or gaps limits assumed): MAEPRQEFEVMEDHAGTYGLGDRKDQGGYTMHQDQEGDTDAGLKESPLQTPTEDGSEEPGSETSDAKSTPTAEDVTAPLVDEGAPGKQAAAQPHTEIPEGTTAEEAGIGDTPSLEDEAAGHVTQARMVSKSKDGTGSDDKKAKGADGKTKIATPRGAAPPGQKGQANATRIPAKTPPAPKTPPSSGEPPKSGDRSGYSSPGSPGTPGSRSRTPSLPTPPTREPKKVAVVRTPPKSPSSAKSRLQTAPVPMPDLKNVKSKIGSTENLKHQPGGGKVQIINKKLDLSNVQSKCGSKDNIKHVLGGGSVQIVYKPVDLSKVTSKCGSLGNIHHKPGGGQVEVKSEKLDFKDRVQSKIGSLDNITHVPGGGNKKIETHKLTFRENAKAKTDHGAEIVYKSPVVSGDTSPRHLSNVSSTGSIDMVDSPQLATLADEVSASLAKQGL
# Experiment: cell-based or functional assay
row,Binder,"IC50 (µM), Tau40 assay (ThT)"
1,IWIRYW,4.05 µM
2,FRIWIRYF,4 µM
3,RIHIFFW,4.4 µM
4,WRIRIRH,4.44 µM
5,WRIRIRR,3.15 µM
6,WRIRLRW,0.9 µM and 0.97 µM
7,WRIRLYWR,3.1 µM
8,KWWIRIRYW,4.62 µM and 7.02 µM
9,WRIRIAW,4.72 µM
10,LRIWIRYL,2.66 µM
11,ARIRIRW,4.19 µM
12,IRIWIW,6.77 µM
13,RIRIAIW,4.14 µM
14,IRLWVW,8.77 µM
15,FRIRIKHY,9.45 µM
16,IRLWIW,9.6 µM
17,WYRLRIRW,0.86 µM and 0.97 µM
18,RIRVWIF,6.53 µM and 6.89 µM
19,ERIWIRYW,5.33 µM
20,IRIRWRW,2.78 µM
21,WRIWIREW,2.76 µM
22,IWIRYWRW,2.73 µM
23,W[hArg]I[hArg]L[hArg]W [W(hR)I(hR)L(hR)W],3.39 µM
24,RRIRIRW,2.88 µM
25,WRIRARW,8.01 µM
26,WRIWIRLW,7.32 µM

row,Binder,"IC50 (µM), Tau40 assay (ThT)"
1,IRWRIRW,2.82 µM
2,LKIHIRHW,3.79 µM
3,RIWIRIW,6.47 µM
4,WIRYWWRI,3.69 µM
5,WYRIWIRW,0.96 µM and 1 µM and 1.73 µM
6,KIRLYWW,5.73 µM
7,RIALYWW,3.54 µM
8,WRARIRW,3.7 µM
9,RIRLEWW,9.8 µM
10,FRIRIHHW,3.2 µM
11,RIWLWYR,2.73 µM
12,ARIWIRYW,4.08 µM
13,RIRLWIW,7.07 µM
14,HRIRIRW,3.28 µM
15,WRIWIRW,2.98 µM and 2.1 µM and 2.11 µM
16,RIWIRVW,6.36 µM
17,WRIHIRYW,3.76 µM
18,WRIWIR,7.22 µM
19,WRIRIRW,0.9 µM and 0.84 µM
20,RIRIRWW,4.57 µM
21,WKIHIWWR,5.75 µM
22,RIRIWVW,7.07 µM
23,WRIHIRW,3.09 µM
24,RIRIFIW,3.94 µM
25,WRIRIRA,8.31 µM

# From patent publication US20230137562A1, “TAU AGGREGATION INHIBITORS” (priority 2017, published 2023)
